This is an account of results in the DeepSol protein solubility set.

A short description of the series: soluble on expression in E. coli; label from the status in PepcDB or PDB records.
Turning to “MAIQTSNLGYPRIGLQREWKKTLEAFWSNKINEEQFLTTMKEIRLQHVKVQQEKGIELIPIGDFTYYDHVLDTAYMLGFIPSRFSEFTSYLDVYFAMARGSKDHVASEMTKWFNTNYHYIVPEYEEGLQISLKDNRPLRLYEEAKQELGVDGKPVILGPYTFLKLAKGYTQEQFATILKQLVAPYVQLLSELHAAGAQIIQVDEPIFASLTKEEVQQAKEIYEAIRKEVPNATLLLQTYFDSVEENYEEIITFPVSSIGLDFVHGKEGNLNAISKYGFPADKTLAVGCIDGRNIWRADLDEVLTLFTTLQKQVQTKDLIVQPSCSLLHTPIDKTEETHLSTELFDALAFANQKLEELVLIHSALTQGTESISNELETYRNVHHTIRSSAARNREDVKAARTALKEEDFSRPLPFEKRYELQQVALKLPLLPTTTIGSFPQTTEVRQTRKEWRNGIISNEQYEQFIEKETEKWIRYQEEIGLDVLVHGEFERTDMVEYFGERLAGFSFTKNGWVQSYGSRCVKPPVIYGDVAFINGMTIKETVYAQSLTEKVVKGMLTGPVTILNWSFVRNDIPRKEVSYQIALALRHEIELLESSGIRVIQVDEPALREGMPLKEKDWDAYITWAVQSFLLATSSVANETQIHTHMCYSNFEDIVDAIRALDADVISIETSRSHGEFIDTLKHTTYEKGIGLGVYDIHSPRVPSKDEMYKIVEQSLQVCDPKYFWINPDCGLKTRRTEEVIPALEHMVQAAKDARSLLKTNA”, the “soluble on expression in E. coli” value is given as “not soluble”. For “MAITINIYYSGTNGGAREFAKEMIASGIVEAIRAEKGNSRYEYFFPMDDEETVLLIDSWTDQEALDKHHASPMMTRITELREKYDLHMKVERYVSDVTDPLTKDAAFIRK” the value was “not soluble”; for “MAIVPFKRDPTFYPSPKMAMKAPPEDLAYVACLYTGTGINRADFIAVVDVNPKSETYSKIVHKVELPYINDELHHFGWNACSSALCPNGKPNIERRFLIVPGLRSSRIYIIDTKPNPREPKIIKVIEPEEVKKVSGYSRLHTVHCGPDAIYISALGNEEGEGPGGILMLDHYSFEPLGKWEIDRGDQYLAYDFWWNLPNEVLVSSEWAVPNTIEDGLKLEHLKDRYGNRIHFWDLRKRKRIHSLTLGEENRMALELRPLHDPTKLMGFINMVVSLKDLSSSIWLWFYEDGKWNAEKVIEIPAEPLEGNLPEILKPFKAVPPLVTDIDISLDDKFLYLSLWGIGEVRQYDISNPFKPVLTGKVKLGGIFHRADHPAGHKLTGAPQMLEISRDGRRVYVTNSLYSTWDNQFYPEGLKGWMVKLNANPSGGLEIDKEFFVDFGEARSHQVRLSGGDASSDSYCYP”, “soluble”; for “MAKKDEHLRKPEWLKIKLNTNENYTGLKKLMRENNLHTVCEEAKCPNIHECWAVRRTATFMILGSVCTRACRFCAVKTGLPTELDLQEPERVADSVALMNLKHAVITAVARDDQKDGGAGIFAETVRAIRRKSPFTTIEVLPSDMGGNYDNLKTLMDTRPDILNHNIETVRRLTPRVRARATYDRSLEFLRRAKEMQPDIPTKSSIMIGLGETKEEIIEVMDDLLANNVDIMAIGQYLQPTKKHLKVQKYYHPDEFAELKEIAMQKGFSHCEAGPLVRSSYHADEQVNEASKKR”, “not soluble”. Regarding “MAKKTSSKGKLPPGPLPLPGLGNLLHVDFQNTPYCFDQLRRRFGDVFSLQLAWTPVVVLNGLAAVREALVTHGEDTADRPPVPITQILGFGPRSQGVFLARYGPAWREQRRFSVSTLRNLGLGKKSLEQWVTEEAACLCAAFANHSGRPFRPNGLLDKAVSNVIASLTCGRRFEYDDPRFLRLLDLAQEGLKEESGFLREVLNAVPVDRHIPALAGKVLRFQKAFLTQLDELLTEHRMTWDPAQPPRDLTEAFLAEMEKAKGNPESSFNDENLRIVVADLFSAGMVTTSTTLAWGLLLMILHPDVQRRVQQEIDDVIGQVRRPEMGDQAHMPYTTAVIHEVQRFGDIVPLGMTHMTSRDIEVQGFRIPKGTTLITNLSSVLKDEAVWEKPFRFHPEHFLDAQGHFVKPEAFLPFSAGRRACLGEPLARMELFLFFTSLLQHFSFSVPTGQPRPSHHGVFAFLVSPSPYELCAVPRHHHH”, the “soluble on expression in E. coli” value is “soluble”.
